Assay results from US20240174736A1 (STARMAB BIOLOGICS SUZHOU, published 2024).

Key:
[1] = biological target: pneumolysin (PLY) recombinant protein (Streptococcus pneumoniae, UniProt Q04IN8 1-471)
[2] = biological target: T1, attenuated PLY mut recombinant protein (pneumolysin with alanine 146 deleted) (Streptococcus pneumoniae, UniProt Q04IN8 1-471); assay: ELISA, PLYmut coated at 0.1 µg/well, antibody in 2-fold dilutions, HRP goat anti-human IgG
T1 construct: The change is a deletion of A146, not a substitution ('-' under new means deleted); Expressed in E. coli BL21 (DE3) plysS with a C-terminal His tag; also called PLYmut protein; PLY mut antigen; not shown: C-terminal His tag

B1: humanized antibody 2E5H3L0 (antibody, human IgG1, kappa, V domains shown)
VH: EVQLVESGGGLVQPGGSLKLSCAASGYTFGDNWMNWVRQASGKGLEWVGEIRLKSNNYATRYAESVKGRFTISRDDSKNTVYLQMNSLKTEDTAVYYCTRTQFITSVVAPFDFWGQGTTVTVSS
VL: not shown
notes: also called 2E5H3L0 humanized antibody; hu2E5VH3CH/hu2E5VL0CL
EC50 [1]: 0.0203 µg/mL
EC50 [2]: 0.0162 µg/mL

B2: 2E5 mouse/human chimeric antibody (2E5HL) (antibody, human IgG1, kappa, V domains shown)
VH: EVKVEESGGGSVQPGGSMKLSCVASGYTFGDNWMNWVRQSPEKGLEWVAEIRLKSNNYATRYAESVKGRFTISRDDSKSSVYLQMNNLRTEDTGIYYCTRTQFITSVVAPFDFWGQGTTLTVSS
VL: not shown
notes: also called 2E5HL human-mouse chimeric antibody; c2E5VHCH/c2E5VLCL
EC50 [1]: 0.0171 µg/mL
EC50 [2]: 0.0158 µg/mL
